Consider one protein from patent US20170188835.

This data set concerns the target iTEV(+) 3.0, infrared fluorescent Tobacco Etch Virus (TEV) protease sensor.

B1: Tobacco Etch Virus (TEV) protease (protein)
chain: GESLFKGPRDYNPISSTICHLTNESDGHTTSLYGIGFGPFIITNKHLFRRNNGTLLVQSLHGVFKVKNTTTLQQHLIDGRDMIIIRMPKDFPPFPQKLKFREPQREERICLVTTNFQTKSMSSMVSDTSCTFPSSDGIFWKHWIQTKDGQCGSPLVSTRDGFIVGIHSASNFTNTNNYFTSVPKNFMELLTNQEAQQWVSGWRLNADSVLWGGHKVFMSKPEEPFQPVKEATQLMNELVYSQ
Turning to B1, the “gel electrophoresis with Coomassie blue staining (cleavage of the sensor)” value was “Two bands revealed by Coomassie blue staining correspond to N and C half of the sensor with the expected molecular weight”.
